In this assay the target is hFGFR1c and hKLB co-expressed on HEK293 cells (human) (UniProt P11362). In words: cell-based or functional assay.

The substance REGN4366 (bispecific antibody) registered a % activation, SRE-luciferase reporter, normalized against soluble FGF21 of 19%.

For the origin of these results see US20250171545A1.
